Values joined by “and” are separate entries in the source; they are usually repeats but may differ in a detail not shown here. Identical values can stand only once. No end group written: not given here.
B1: C-terminal SARS-CoV-2-E PBM peptide (peptide)
peptide: NLNSSRVPDLLV
notes: also called SARS-CoV-2 WT; SARS-CoV-2 peptide E
B2: ZO-1 PDZ2 (domain or fragment, human, UniProt Q07157 184-264, looked up)
chain: PTKVTLVKSRKNEEYGLRLASHIFVKEISQDSLAARDGNIQEGDVVLKINGTVTENMSLTDAKTLIERSKGKLKMVVQRDE
notes: second PDZ domain of human ZO-1 (TJP1), residues 184-264, numbering of the full-length human protein; […]; Labelled on amines with RED-NHS dye for MST; also called TJP1 PDZ2; ZO-1-2
B3: ZO-1: PDZ2 domain of ZO-1, residues 184-264, at 1 mg/mL (protein)
chain: PTKVTLVKSRKNEEYGLRLASHIFVKEISQDSLAARDGNIQEGDVVLKINGTVTENMSLTDAKTLIERSKGKLKMVVQRDE
modifications: left off: His tag, N-terminal, state not stated
notes: PDZ2 domain of ZO-1, residues 184-264, at 1 mg/mL
B4: MLLT4-PBM: MLLT4-PDZ prepared with an excess of protein E PBM peptide (protein)
chain: RKEPEIITVTLKKQNGMGLSIVAAKGAGQDKLGIYVKSVVKGGAADVDGRLAAGDQLLSVDGRSLVGLSQERAAELMTRTSSVVTLEVAKQGAI
modifications: left off: His tag, N-terminal, cleaved | MBP, N-terminal, cleaved
notes: MLLT4-PDZ prepared with an excess of protein E PBM peptide

Key:
GST-PDZ MLLT4 = assay: GST pull-down, GST-PDZ MLLT4; assay type: binding, human; conditions: HEK293 cell lysates; 2 h at 4°C with glutathione resins; anti-GFP Western blot
Method: (§1) To investigate whether the five PDZ domains can interact with the full-length E protein and in a PBM-dependent manner, glutathione S-transferase (GST) pull-down assays were performed with the purified GST-tagged PDZ domains of ZO-1, LNX2, PARD3, MLLT4, and MPP5 and the lysates of HEK293 cells overexpressing constructs of GFP alone, GFP-tagged wild-type full-length E protein (GFP-E-WT), GFP-tagged full-length E protein with the PBM mutated with glycines (GFP-E-GGGG), and GFP-tagged cytoplasmic tail of protein E (last 12 residues; GFP-E last 12 aa) designated 1, 2, 3, and 4 in Figure 2 (Figure 2A). The GFP-tagged construct expression was assessed by examining the fluorescence emitted by the GFP by microscopy and by Western blot on the cell lysates using anti-GFP antibody (Figure 2B). GST alone was used as a negative control. We confirmed by using Ponceau S staining that equal amounts of GST-tagged protein constructs were bound to the GST resin (Figure 2C).
(§2) Glutathione S-transferase alone and its fusion with PDZ ZO1, PDZ LNX2, PDZ MLLT4, PDZ MPP5, and PDZ PARD3 are used as baits and were immobilized on glutathione beads and tested for their ability to pull down GFP alone, GFP-E-WT, GFP-E-GGGG, and GFP-E last 12 aa by Western blot using the anti-GFP antibody. After washing, identical amounts of beads were analyzed for the presence of GFP-tagged proteins. […]

GST-PDZ ZO1 = assay: GST pull-down, GST-PDZ ZO1; assay type: binding, human; conditions: HEK293 cell lysates; 2 h at 4°C with glutathione resins; anti-GFP Western blot
Method: as §1, §2

GST-PDZ MPP5 = assay: GST pull-down, GST-PDZ MPP5; assay type: binding, human; conditions: HEK293 cell lysates; 2 h at 4°C with glutathione resins; anti-GFP Western blot
Method: as §1, §2

GST-PDZ PARD3 = assay: GST pull-down, GST-PDZ PARD3; assay type: binding, human; conditions: HEK293 cell lysates; 2 h at 4°C with glutathione resins; anti-GFP Western blot
Method: as §1, §2

GST-PDZ LNX2 = assay: GST pull-down, GST-PDZ LNX2; assay type: binding, human; conditions: HEK293 cell lysates; 2 h at 4°C with glutathione resins; anti-GFP Western blot
Method: as §1, §2

GST alone = assay: GST pull-down, GST alone (negative control); assay type: binding; conditions: GST alone as bait; HEK293 cell lysates; anti-GFP Western blot
Method: as §1, §2

ZO-1 PDZ2 = biological target: B2; assay: MST; […]; PBS tween 20 0.05%; room temperature; […]; duplicate; conditions: both partners purified
MPP5 PDZ = biological target: T1, MPP5 PDZ (human, UniProt Q8N3R9 238-336); assay: as above; conditions: both partners purified
T1 construct: PDZ domain of human MPP5 (PALS1), residues 238-336, numbering of the full-length human protein; […]; Labelled on amines with RED-NHS dye for MST; also called PALS1 PDZ; not shown: GST, N-terminal, cleaved
T1 sequence (looked up): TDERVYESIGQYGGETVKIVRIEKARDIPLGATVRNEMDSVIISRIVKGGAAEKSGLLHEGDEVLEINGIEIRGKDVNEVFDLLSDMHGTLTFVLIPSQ

MLLT4 PDZ = biological target: T2, MLLT4 PDZ (human, UniProt P55196 1002-1095); assay: as above; conditions: both partners purified
T2 construct: PDZ domain of human MLLT4 (Afadin); the residues named in the structure (1014-1022, 1071) fit 1002-1095; also called Afadin PDZ; not shown: His tag, N-terminal, cleaved; MBP, N-terminal, cleaved
T2 sequence (looked up): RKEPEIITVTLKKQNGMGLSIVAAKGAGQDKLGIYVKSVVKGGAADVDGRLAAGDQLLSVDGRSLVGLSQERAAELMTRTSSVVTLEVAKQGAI

LNX2 PDZ2 = biological target: T3, LNX2 PDZ2 (human, UniProt Q8N448 334-426); assay: as above; conditions: both partners purified
T3 construct: second PDZ domain of human LNX2, residues 334-426, numbering of the full-length human protein; […]; Labelled on amines with RED-NHS dye for MST; also called LNX2-2; not shown: His tag, N-terminal, cleaved
T3 sequence (looked up): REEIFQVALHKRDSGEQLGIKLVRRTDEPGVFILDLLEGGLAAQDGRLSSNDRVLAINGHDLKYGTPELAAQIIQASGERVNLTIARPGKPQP

PARD3 PDZ3 = biological target: T4, PARD3 PDZ3 (human, UniProt Q8TEW0 582-685); assay: as above; conditions: both partners purified
T4 construct: third PDZ domain of human PARD3, residues 582-685, numbering of the full-length human protein; […]; Labelled on amines with RED-NHS dye for MST; also called PARDD3-3; not shown: His tag, N-terminal, cleaved

[1] = biological target: the molecule itself; assay: AUC; sedimentation velocity, ZO-1-PDZ2 at 1 mg/mL; Tris 50 mM pH 7.5, NaCl 150 mM, TCEP 0.5 mM; 20°C, 42,000 rpm
[2] = Analytical ultracentrifugation; assay type: physicochemical; conditions: 1 mg/mL, 20°C; for Oligomeric state in solution: AUC; for Oligomeric state in solution / Frictional ratio f/f0 (average) / Molecular weight estimated by analytical ultracentrifugation (AUC) / Peak proportion: pH 7.5; for Frictional ratio f/f0 (average): average over peaks; for Sedimentation coefficient: Tris 50 mM pH 7.5, NaCl 150 mM, TCEP 0.5 mM, 42,000 rpm, MLLT4-PDZ with excess of E PBM peptide
Method: ZO-1-PDZ2 and MLLT4-PDZ were prepared at 1 mg/mL. MLLT4-PDZ was prepared with an excess of protein E PBM peptide. Samples were prepared in Tris 50 mM pH 7.5, NaCl 150 mM, and TCEP 0.5 mM. A sample of 400 μl was loaded into 1.2-cm double-sector cells between two sapphire windows. […] Sedimentation profiles were monitored over time by absorbance measurement at 280 nm and by interferometry. The data were analyzed using the continuous size distribution model c(s) of the Sedfit 16.36 software. All distributions were calculated with a floating frictional ratio f/f0 and a maximum entropy regularization procedure with a confidence level of 0.68. The buffer viscosity (η = 0.01031 Poise), the density (ρ = 1.0059), and the partial specific volume of 0.746 for MLLT4 and 0.736 for Z0-1 were estimated at 20°C from the amino acid sequences at 20°C using the software SEDTERP 3.0.3.^3

T4 sequence (Q8TEW0 582-685): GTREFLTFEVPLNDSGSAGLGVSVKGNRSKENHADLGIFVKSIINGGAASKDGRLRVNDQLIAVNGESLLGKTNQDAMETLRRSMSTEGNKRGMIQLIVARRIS

Molecule	Oligomeric state in solution [2]	Frictional ratio f/f0 (average) [2]	Sedimentation coefficient ([2]; peak 1) [S]	Molecular weight estimated by analytical ultracentrifugation (AUC) ([2]; peak 1) [kDa]	Peak proportion ([2]; peak 1) [%]	Sedimentation coefficient ([2]; peak 2) [S]	Molecular weight estimated by analytical ultracentrifugation (AUC) ([2]; peak 2) [kDa]	Peak proportion ([2]; peak 2) [%]	Sedimentation coefficient ([2]; peak 3) [S]	Molecular weight estimated by analytical ultracentrifugation (AUC) ([2]; peak 3) [kDa]	further results
GFP-E last 12 aa (NLNSSRVPDLLV; also: fused to GFP, attachment end not given here)	–	–	–	–	–	–	–	–	–	–	GFP-tagged protein in bound fraction (GST-PDZ MLLT4): detected in all interactions with GST-PDZ domains; GFP-tagged protein in bound fraction (GST-PDZ ZO1): detected in all interactions with GST-PDZ domains; GFP-tagged protein in bound fraction (GST-PDZ MPP5): detected in all interactions with GST-PDZ domains; GFP-tagged protein in bound fraction (GST-PDZ PARD3): detected in all interactions with GST-PDZ domains; GFP-tagged protein in bound fraction (GST-PDZ LNX2): detected in all interactions with GST-PDZ domains; GFP-tagged protein in bound fraction (GST alone): not detected
B1	–	–	–	–	–	–	–	–	–	–	Kd (ZO-1 PDZ2): 15 µM; Kd (MPP5 PDZ): 30 µM; Kd (MLLT4 PDZ): 569 µM; Kd (LNX2 PDZ2): 289 µM; Kd (PARD3 PDZ3): 341 µM
B2	–	–	–	–	–	–	–	–	–	–	stoichiometry N [1]: 2 and ~4
B3	one dimeric form and one higher oligomeric state possibly compatible with a tetramer in solution	1.4	2.1	26	49	2.8	40	49	3.7	60	–
B4	mainly monomeric in solution	1.2	0.5	2.8	25	1.4	12	65	2.3	26	Peak proportion ([2]; peak 3): 10%
